Key:
Test in all cases: cell-based or functional assay
[1] = biological target: bovine trypsin (bovine) (UniProt P00760)
[2] = biological target: Trypsin-like protease (TL1) from Fusarium oxysporum (Fusarium oxysporum) (UniProt P35049)
[3] = biological target: porcine trypsin (porcine) (UniProt P00761)

UniProt P35049, sequence (P35049 25-248 limits assumed): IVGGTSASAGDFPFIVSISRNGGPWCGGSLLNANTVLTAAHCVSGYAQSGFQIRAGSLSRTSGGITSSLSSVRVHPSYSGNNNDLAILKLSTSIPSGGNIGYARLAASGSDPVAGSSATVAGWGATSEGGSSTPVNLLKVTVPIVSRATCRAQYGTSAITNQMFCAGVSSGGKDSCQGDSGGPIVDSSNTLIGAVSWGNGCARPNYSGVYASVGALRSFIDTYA

## Bowman-Birk inhibitor (Cat # T-9777, Sigma-Aldrich) (from UniProt P01055 40-110)
[1]
  % residual activity at 0.00048 mg/ml Bowman-Birk inhibitor: 6.9%
  % residual activity at 0.00097 mg/ml Bowman-Birk inhibitor: 5.3%
  % residual activity at 0.00195 mg/ml Bowman-Birk inhibitor: 0.1%
  % residual activity at 0.0039 mg/ml Bowman-Birk inhibitor: -0.4%
  % residual activity at 0.0078 mg/ml Bowman-Birk inhibitor: 0%
  % residual activity at 0.0156 mg/ml Bowman-Birk inhibitor: -1.5%
  % residual activity at 0.0313 mg/ml Bowman-Birk inhibitor: 0.1%
  % residual activity at 0.0625 mg/ml Bowman-Birk inhibitor: 0%
  % residual activity at 0.125 mg/ml Bowman-Birk inhibitor: 0%
  % residual activity at 0.25 mg/ml Bowman-Birk inhibitor: 0%
  % residual activity at 0.5 mg/ml Bowman-Birk inhibitor: 0%
[2]
  % residual activity at 0.00048 mg/ml Bowman-Birk inhibitor: 117%
  % residual activity at 0.00097 mg/ml Bowman-Birk inhibitor: 111%
  % residual activity at 0.00195 mg/ml Bowman-Birk inhibitor: 103%
  % residual activity at 0.0039 mg/ml Bowman-Birk inhibitor: 109%
  % residual activity at 0.0078 mg/ml Bowman-Birk inhibitor: 82%
  % residual activity at 0.0156 mg/ml Bowman-Birk inhibitor: 61%
  % residual activity at 0.0313 mg/ml Bowman-Birk inhibitor: 32%
  % residual activity at 0.0625 mg/ml Bowman-Birk inhibitor: 13%
  % residual activity at 0.125 mg/ml Bowman-Birk inhibitor: 5.8%
  % residual activity at 0.25 mg/ml Bowman-Birk inhibitor: 2.2%
  % residual activity at 0.5 mg/ml Bowman-Birk inhibitor: 0.8%
[3]
  % residual activity at 0.00048 mg/ml Bowman-Birk inhibitor: 11%
  % residual activity at 0.00097 mg/ml Bowman-Birk inhibitor: 9.4%
  % residual activity at 0.00195 mg/ml Bowman-Birk inhibitor: 8.3%
  % residual activity at 0.0039 mg/ml Bowman-Birk inhibitor: 6.2%
  % residual activity at 0.0078 mg/ml Bowman-Birk inhibitor: 3.2%
  % residual activity at 0.0156 mg/ml Bowman-Birk inhibitor: 2.2%
  % residual activity at 0.0313 mg/ml Bowman-Birk inhibitor: 1%
  % residual activity at 0.0625 mg/ml Bowman-Birk inhibitor: 6.4%
  % residual activity at 0.125 mg/ml Bowman-Birk inhibitor: 0.2%
  % residual activity at 0.25 mg/ml Bowman-Birk inhibitor: 0.1%
  % residual activity at 0.5 mg/ml Bowman-Birk inhibitor: 0.1%

From patent US20140030416A1
